In patent publication US20110046043A1 (NEW YORK UNIVERSITY, published 2011):
*1 amine or outer side, *2 acyl side, *3 side chain or, on linkers, in order; H or OH if unused. Where no end group is shown, it is not given here. [ ]: non-standard residue; d: D form. Suc = O=C(CCC(=O)[*:2])[*:1]

What was measured:
[1] = molecular target: HIV-1 HXB2 envelope (gp41) expressed on CHO[HIVe] (clone 7d2) cells (HIV-1 (HXB2), UniProt P04578 512-856); test: cell-based or functional assay
IZN17 (peptide 11, …) [2] = molecular target: T1, IZN17 (peptide 11, AcIKKEIEAIKKEQEAIKKKIEAIEKLLQLTVWGIKQLQARIL-NH2) (N-terminal acetyl (Ac); C-terminal amide (NH2)); test: fluorescence polarization competition, displacement of peptide 12 from IZN17; upper limit of the assay
T1 construct: also called peptide IZN17; 1ZN17
T1 chain: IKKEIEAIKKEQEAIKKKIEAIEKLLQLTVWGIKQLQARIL

IZN17 (peptide 11, …) [3] = molecular target: T1, IZN17 (peptide 11, …); test: fluorescence polarization competitive binding assay with peptide 12 as probe
IZN17 (peptide 11, …) [4] = molecular target: T1, IZN17 (peptide 11, …); test: fluorescence polarization competition, displacement of peptide 12 from IZN17
IZN17 (peptide 11, …) [5] = molecular target: T1, IZN17 (peptide 11, …); test: fluorescence polarization, direct saturation binding of fluorescein-labeled peptide 12 to IZN17, PBS, 25° C.
IZN17 (peptide 11, …) [6] = molecular target: T1, IZN17 (peptide 11, …); test: fluorescence polarization competition, displacement of peptide 12 from IZN17; compared with peptide 1
IZN17 (peptide 11, …) [7] = molecular target: T1, IZN17 (peptide 11, …); test: fluorescence polarization competition, displacement of peptide 12 from IZN17; value inexact because the peptide aggregates

Chain of HIV-1 HXB2 envelope (gp41) expressed on CHO[HIVe] (clone 7d2) cells (P04578 512-856): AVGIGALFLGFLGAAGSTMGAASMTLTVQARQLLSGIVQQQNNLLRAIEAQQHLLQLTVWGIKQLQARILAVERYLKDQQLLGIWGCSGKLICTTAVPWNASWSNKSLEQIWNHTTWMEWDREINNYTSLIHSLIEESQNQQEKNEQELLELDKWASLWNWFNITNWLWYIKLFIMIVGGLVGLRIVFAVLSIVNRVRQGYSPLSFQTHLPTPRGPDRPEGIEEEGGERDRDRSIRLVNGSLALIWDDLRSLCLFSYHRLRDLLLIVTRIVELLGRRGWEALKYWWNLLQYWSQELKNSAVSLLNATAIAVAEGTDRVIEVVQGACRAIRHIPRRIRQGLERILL

B1: HBS α-helix 8 (XNEMTWEEWDKKIEEYT) (peptide)
peptide: XNEMTWEEWDKKIEEYT
modifications: X at position 1 is a pentenoic acid residue; N-terminal hydrogen bond surrogate (carbon-carbon bond by ring-closing metathesis in place of an i and i+4 hydrogen bond)
notes: also called peptide 8
[1]
  inhibition of gp41-mediated cell-cell fusion (syncytium formation, β-galactosidase activity): > 200
IZN17 (peptide 11, …) [2]
  Kd: < 5 µM

B2: HBS α-helix 5 (XWAAWDREINNYT) (peptide)
peptide: XWAAWDREINNYT
modifications: X at position 1 is a pentenoic acid residue; N-terminal hydrogen bond surrogate (carbon-carbon bond by ring-closing metathesis in place of an i and i+4 hydrogen bond)
notes: Similar to 1 and 2 but missing N-terminal Met-626 and Thr-627; also called peptide 5
[1]
  inhibition of gp41-mediated cell-cell fusion (syncytium formation, β-galactosidase activity): > 200
IZN17 (peptide 11, …) [3]
  binding result: no binding

B3: Peptide 10 (AcMTWEEWDKKIEEYTKKI-NH2) (peptide)
peptide: Ac-MTWEEWDKKIEEYTKKI-NH2
notes: Unconstrained counterpart of HBS α-helix 9; also called unconstrained peptide 10
IZN17 (peptide 11, …) [4]
  binding result: binds

B4: HBS α-helix 6 (XMTWEEWDKKIEEYT) (peptide)
peptide: XMTWEEWDKKIEEYT
modifications: X at position 1 is a pentenoic acid residue; N-terminal hydrogen bond surrogate (carbon-carbon bond by ring-closing metathesis in place of an i and i+4 hydrogen bond)
notes: also called peptide 6
[1]
  inhibition of gp41-mediated cell-cell fusion (syncytium formation, β-galactosidase activity): > 200
IZN17 (peptide 11, …) [4]
  binding result: binds

B5: HBS α-helix 4 (XAAAWEEWDKKI) (peptide)
peptide: XAAAWEEWDKKI
modifications: X at position 1 is a pentenoic acid residue; N-terminal hydrogen bond surrogate (carbon-carbon bond by ring-closing metathesis in place of an i and i+4 hydrogen bond)
notes: Trp/Trp/Ile motif lies outside of the constraint; also called peptide 4
[1]
  inhibition of gp41-mediated cell-cell fusion (syncytium formation, β-galactosidase activity): > 200
IZN17 (peptide 11, …) [3]
  binding result: no binding

B6: Fluorescein-labeled peptide 12 (suc-MTWMEWDREINNYTC^Flu) (peptide)
peptide: Suc-MTWMEWDREINNYTC(fluorescein)-NH2
notes: also called fluorescent probe 12; fluorescein-labeled C-peptide derivative
IZN17 (peptide 11, …) [5]
  Kd: 24 µM

B7: HBS α-helix 2 (XMTWMEWDREINNYT) (peptide)
peptide: [Pentenoic acid]MTWMEWDREINNYT
modifications: staple (positions not given here); not fully specified (C-terminus, bridges)
notes: HBS-constrained form of peptide 1; made on Rink amide resin; also called peptide 2
[1]
  inhibition of gp41-mediated cell-cell fusion (syncytium formation, β-galactosidase activity): > 200
IZN17 (peptide 11, …) [6]
  binding result: binds

B8: HBS α-helix 3 (XWAAWDKKI) (peptide)
peptide: XWAAWDKKI
modifications: X at position 1 is a pentenoic acid residue; N-terminal hydrogen bond surrogate (carbon-carbon bond by ring-closing metathesis in place of an i and i+4 hydrogen bond)
notes: Shortest designed peptide with the Trp/Trp/Ile motif; also called peptide 3
[1]
  inhibition of gp41-mediated cell-cell fusion (syncytium formation, β-galactosidase activity): > 200
IZN17 (peptide 11, …) [3]
  binding result: no binding

B9: Peptide 1 (AcMTWMEWDREINNYT-NH2), 14-residue C-peptide derived from gp41 (peptide)
peptide: Ac-MTWMEWDREINNYT-NH2
notes: Unconstrained parent peptide; also called unconstrained C-peptide
IZN17 (peptide 11, …) [7]
  Kd: 37 µM

B10: HBS α-helix 9 (XMTWEEWDKKIEEYTKKI) (peptide)
peptide: XMTWEEWDKKIEEYTKKI
modifications: X at position 1 is a pentenoic acid residue; internally-constrained α-helical region (hydrogen bond surrogate, carbon-carbon bond by ring-closing metathesis) spanning residues 1 through 4 of SEQ ID NO: 9
notes: also called peptide 9
[1]
  inhibition of gp41-mediated cell-cell fusion (syncytium formation, β-galactosidase activity), EC50: 43 µM
IZN17 (peptide 11, …) [2]
  Kd: < 5 µM

B11: HBS α-helix 7 (XEMAWEEWDKKIEEYT) (peptide)
peptide: XEMAWEEWDKKIEEYT
modifications: X at position 1 is a pentenoic acid residue; N-terminal hydrogen bond surrogate (carbon-carbon bond by ring-closing metathesis in place of an i and i+4 hydrogen bond)
notes: Thr-627 replaced with alanine; a glutamic acid added at the N-terminus; also called peptide 7
[1]
  inhibition of gp41-mediated cell-cell fusion (syncytium formation, β-galactosidase activity): > 200
IZN17 (peptide 11, …) [4]
  fold lower affinity than HBS α-helix 6: 20 fold
